# Results from article PMC7954794, “Protein context shapes the specificity of SH3 domain-mediated interactions in vivo” (Nature Communications, 2021).
# B1: S. cerevisiae Abp1 (full length; SH3 domain 535-592 mutated) / Hua2 (parent)
# chain 1: MALEPIDYTTHSREIDAEYLKIVRGSDPDTTWLIISPNAKKEYEPESTGSSFHDFLQLFDETKVQYGLARVSPPGSDVEKIIIIGWCPDSAPLKTRASFAANFAAVANNLFKGYHVQVTARDEDDLDENELLMKISNAAGARYSIQTSSKQQGKASTPPVKKSFTPSKSPAPVSKKEPVKTPSPAPAAKISSRVNDNNDDDDWNEPELKERDFDQAPLKPNQSSYKPIGKIDLQKVIAEEKAKEDPRLVQKPTAAGSKIDPSSDIANLKNESKLKRDSEFNSFLGTTKPPSMTESSLKNDDDKVIKGFRNEKSPAQLWAERKAKQNSGNAETKAEAPKPEVPEDEPEGEPDVKDLKSKFEGLAASEKEEEEMENKFAPPPKKSEPTIISPKPFSKPQEPVKAEEAEQPKTDYKKIGNPLPGMHIEADNEEEPEENDDDWDDDEDEAAQPPLPSRNVASGAPVQKEEPEQEEIAPSLPSRNSIPAPKQEEAPEQAPEEEIEEEAEEAAPQLPSRSSAAPPPPPRRATPEKKPKENPWATAEYDYDAAEDNELTFVENDKIINIEFVDDDWWLGELEKDGSKGLFPSNYVSLGN
# chain 2: MQQTKFGKMYLDHDSVVEYSEDEIVEADRITLGYKKRLSMIENQMRHLLEDFSLDVQQIEPILADLQKYYDAFLQLLQKRNKSLQCKRSTHQPVPSPMNSQTSTNAKVNLSGKLMKFQLNSVQKFDEENILRILQNKIEFEHYFQIDKGKKQKVLLLAVYQCLNGPTRLHKVLNIEGIIHNNSIRTILGKQVSSSKWTVFLYDVKLVLLAHRQDVPNLETSKMIVRYGDLFPCALYFKDHTAY
# Variants of: B1
# Test: DHFR protein-fragment complementation in yeast (Abp1-DHFR F[1,2] x partner-DHFR F[3]), deep mutational scanning, second methotrexate selection vs reference
# Settings: with Hua2; S. cerevisiae, DHFR-PCA selection in liquid with methotrexate at 30 C, two 72 h selections (the score uses the second); reference = the pre-selection culture; not an affinity; scale: DMS score: mean over two replicates of log2(f_test/f_ref + 0.5)/ln 2, minus the synonymous-codon median
row,screen value,Variant
1,-2.01,chain 1 L574P
2,-1.23,chain 1 L574S
3,-2.82,chain 1 L582C
4,-2.04,chain 1 L582P
5,-2.88,chain 1 L582Q
6,-2.75,chain 1 L590A
7,-2.44,chain 1 L590H
8,-2.62,chain 1 L590Q
9,-2.85,chain 1 L590R
10,-1.2,chain 1 L590W
11,-1.22,chain 1 N556W
12,-2.29,chain 1 N561A
13,-2.22,chain 1 N561C
14,-1.17,chain 1 N561E
15,-1.97,chain 1 N561I
16,-2.43,chain 1 N561M
17,-1.98,chain 1 N561Q
18,-2.5,chain 1 N561Y
19,-2.5,chain 1 N586F
20,-2.94,chain 1 P584R
21,-2.19,chain 1 P584T
22,-1.27,chain 1 S579D
23,-1.27,chain 1 S579I
24,-2.21,chain 1 S579P
25,-2.9,chain 1 S579W
26,-1.59,chain 1 S585I
27,-2.38,chain 1 S589P

row,screen value,Variant
1,-1.12,chain 1 S589Y
2,-2.9,chain 1 T538G
3,-1.88,chain 1 T538P
4,-1.32,chain 1 T552E
5,-2.87,chain 1 T552F
6,-2.02,chain 1 T552P
7,-1.13,chain 1 T552Q
8,-1.06,chain 1 V565I
9,-1.52,chain 1 V588A
10,-2.23,chain 1 V588G
11,-2.21,chain 1 V588L
12,-2.8,chain 1 V588W
13,-1.58,chain 1 W536I
14,-1.23,chain 1 W536N
15,-1.49,chain 1 W569C
16,-2.06,chain 1 W569G
17,-2.34,chain 1 W569L
18,-2.35,chain 1 W569R
19,-2.48,chain 1 W570G
20,-2.68,chain 1 W570N
21,-1.86,chain 1 Y541G
22,-2.42,chain 1 Y541I
23,-2.57,chain 1 Y543D
24,-2.77,chain 1 Y543Q
25,-2.16,chain 1 Y587D
26,-1.43,chain 1 Y587N
27,-2.81,chain 1 Y587Q

# The next lines start with the variant.
row,Variant,screen value
1,chain 1 L574A,-1.53
2,chain 1 L574G,-2.91
3,chain 1 L574H,-1.08
4,chain 1 L574Q,-1.79
5,chain 1 L582H,-1.2
6,chain 1 L582N,-2.32
7,chain 1 L582S,-2.57
8,chain 1 L582V,-2
9,chain 1 L590C,-2.24
10,chain 1 L590E,-2.84
11,chain 1 L590K,-2.78
12,chain 1 L590P,-1.72
13,chain 1 L590S,-2.63
14,chain 1 L590T,-2.55
15,chain 1 L590Y,-1.64
16,chain 1 N556I,-2.52
17,chain 1 N556P,-2.97
18,chain 1 N556V,-2.96
19,chain 1 N561G,-1.4
20,chain 1 N561R,-2.12
21,chain 1 N561S,-2.28
22,chain 1 N561T,-1.97
23,chain 1 N586W,-2.53
24,chain 1 N586Y,-2.41

row,Variant,screen value
1,chain 1 P584A,-2.85
2,chain 1 P584H,-2.12
3,chain 1 P584L,-2.52
4,chain 1 P584S,-2.56
5,chain 1 S579A,-1.48
6,chain 1 S579F,-2.55
7,chain 1 S579G,-1.41
8,chain 1 S579Y,-2.71
9,chain 1 S585E,-2.07
10,chain 1 T538D,-2.65
11,chain 1 T538W,-1.19
12,chain 1 T552C,-1.73
13,chain 1 T552I,-1.99
14,chain 1 T552M,-2.22
15,chain 1 T552V,-2.72
16,chain 1 T552Y,-2.8
17,chain 1 V565E,-2.08
18,chain 1 V565F,-1.5
19,chain 1 V565G,-1.37
20,chain 1 V588D,-2.95
21,chain 1 V588E,-2.04
22,chain 1 V588F,-2.87
23,chain 1 V588I,-2.59
24,chain 1 V588M,-1.92

row,Variant,screen value
1,chain 1 V588T,-2.13
2,chain 1 W536A,-1.3
3,chain 1 W536D,-1.97
4,chain 1 W536G,-2.23
5,chain 1 W536K,-1.76
6,chain 1 W536L,-1.66
7,chain 1 W536P,-2.87
8,chain 1 W536R,-1.3
9,chain 1 W569E,-2.94
10,chain 1 W569V,-2.92
11,chain 1 W570C,-1.57
12,chain 1 W570F,-2.79
13,chain 1 W570L,-2.25
14,chain 1 W570R,-2.58
15,chain 1 W570S,-2.8
16,chain 1 W570Y,-2.31
17,chain 1 Y541T,-2.3
18,chain 1 Y543C,-2.15
19,chain 1 Y543K,-2.96
20,chain 1 Y543N,-1.79
21,chain 1 Y543S,-2.67
22,chain 1 Y587W,-1.66

# Same assay, conditions: with Hua2; S. cerevisiae, DHFR-PCA selection in liquid with methotrexate at 30 C, two 72 h selections (the score uses the second); reference = the pre-selection culture; not an affinity; value at the no-binding floor (a bound); scale: DMS score: mean over two replicates of log2(f_test/f_ref + 0.5)/ln 2, minus the synonymous-codon median
row,screen value,Variant
1,-3.04,chain 1 A537E
2,< -3.06,chain 1 A537H
3,< -3.06,chain 1 A537N
4,< -3.06,chain 1 A537Q
5,< -3.06,chain 1 A539F
6,< -3.06,chain 1 A539K
7,< -3.06,chain 1 A539N
8,-3.03,chain 1 A539Q
9,< -3.06,chain 1 D566I
10,< -3.06,chain 1 D567L
11,-2.98,chain 1 D577F
12,< -3.06,chain 1 E550M

# The next lines start with the variant.
row,Variant,screen value
1,chain 1 A537I,-3.01
2,chain 1 A537L,-3.02
3,chain 1 A537M,< -3.06
4,chain 1 A537R,-3.04
5,chain 1 A537W,< -3.06
6,chain 1 A537Y,< -3.06
7,chain 1 A539D,-3
8,chain 1 A539I,-3.01
9,chain 1 A539L,< -3.06
10,chain 1 A539M,< -3.06
11,chain 1 A539R,-3.02
12,chain 1 A539W,-3.01
13,chain 1 A539Y,< -3.06
14,chain 1 D557F,< -3.06
15,chain 1 D557I,< -3.06
16,chain 1 D557L,< -3.06

row,Variant,screen value
1,chain 1 D557R,< -3.06
2,chain 1 D557W,< -3.06
3,chain 1 D566L,< -3.06
4,chain 1 D566P,< -3.06
5,chain 1 D566W,< -3.06
6,chain 1 D567F,-2.99
7,chain 1 D567W,< -3.06
8,chain 1 D568P,< -3.06
9,chain 1 D577I,-2.99
10,chain 1 D577P,< -3.06
11,chain 1 E540P,-3
12,chain 1 E547P,< -3.06
13,chain 1 E550C,< -3.06
14,chain 1 E550L,< -3.06
15,chain 1 E550N,< -3.06
